T1: cMSLN-His-Avi (cynomolgus, single biotin on the Avi tag in the biotinylated form)
T1 construct: Monomeric; also called cyno MSLN-His-Avi; cMSLN-Avi-His
T1 chain: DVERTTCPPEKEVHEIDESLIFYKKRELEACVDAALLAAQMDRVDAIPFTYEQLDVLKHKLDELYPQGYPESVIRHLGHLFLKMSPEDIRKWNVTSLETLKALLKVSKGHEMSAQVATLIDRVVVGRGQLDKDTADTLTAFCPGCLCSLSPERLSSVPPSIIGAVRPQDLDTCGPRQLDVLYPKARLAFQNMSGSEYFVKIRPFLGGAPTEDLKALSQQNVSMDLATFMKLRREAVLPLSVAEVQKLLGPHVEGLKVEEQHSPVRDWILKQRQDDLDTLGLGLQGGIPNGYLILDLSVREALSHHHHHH


How the values were obtained:
hMSLN-His-Avi [1] = target: T2, hMSLN-His-Avi (human, UniProt Q13421 296-598, single biotin on the Avi tag in the biotinylated form); assay: SPR, hMSLN-His-Avi immobilised ~100 RU, mAb2 injected
T2 construct: Monomeric; also called human MSLN-His-Avi; hMSLN-Avi-His
Method: (§1) 7.1 Binding of CD137/MSLN mAb2 to Human MSLN Under Avid Conditions—Antigen Capture Method Binding of all mAb^2 to MSLN immobilised on a BIAcore chip was tested to determine the binding affinity to human MSLN under avid conditions, where a high concentration of immobilised antigen is available to allow the antibody to bind avidly. […] The association time was 5 min and the dissociation time was 10 min. Running buffer was HBS-EP (GE Healthcare BR100188). Flow cells were regenerated by injecting Glycine-HCl pH1.5 at a flow rate of 30 μl/min for 30 seconds. Data were analysed by double referencing against a flow cell which was intentionally left blank (no antigen coating). The binding kinetics were fitted with a 1:1 Langmuir model to generate binding association (k_a) and dissociation (k_d) rates. Equilibrium binding constants (K_D) were calculated by dividing the dissociation rate by the association rate for each sample. Data analysis was performed with BiaEvaluation software version 3.2.

[2] = target: T3, endogenous cell surface human MSLN (human, UniProt Q13421 296-598); assay: flow cytometry, NCI-H226 cells + 20 nM soluble MSLN
T3 construct: whole, on cells; The cell line is named under assay; also called cell-surface MSLN on NCI-H226, OVCAR-3 and AsPC-1 cells
Method: (§2) To confirm binding to cell surface MSLN, mAb² listed in Table 9 were analysed for binding to endogenous cell surface MSLN on the human lung cancer cell line NCI-H226. In addition, and because MSLN can be found in blood in a shed soluble form, there is a risk that this circulating MSLN might affect exposure and ultimately potency of our mAb². To confirm that presence of soluble MSLN has minimal impact, additional binding experiments to NCI-H226 cells were performed in the presence of 20 nM soluble MSLN which is 10-20 times the level of soluble MSLN found to be of diagnostic value for defining malignant mesothelioma and lung cancer patients as MSLN positive (Cui et al., 2014). Briefly, NCI-H226 cells (ATCC CRL-5826) were harvested from T175 cell culture flasks using Accutase (Gibco, A11105-01).
(§3) In both cases, cells were centrifuged at 1200 rpm for 3 min and resuspended in ice cold FACS buffer made up of DPBS (Life Technologies, 14190169) and 1% BSA (Sigma-Aldrich, A7906) at 2×10⁶ cells/ml and 50 μl per well was seeded in a 96-well V-bottom plate (Costar, 3894). All antibodies tested were diluted in FACS buffer in 120 μl at a concentration range of 0.01-200 nM (4-fold dilutions). The NCI-H226 cells were then centrifuged, supernatant removed and cells resuspended in 100 μl of each mAb dilution and incubated at 4° C. for 45 min. Cells were washed twice by centrifugation with 150 μl FACS buffer, resuspended in 100 μl containing goat anti-human IgG (γ-chain specific) F(ab')2 fragment-R-Phycoerythrin antibody (Sigma, P8047) diluted 1:1000 in FACS buffer and incubated at 4° C. for 45 min. The cells were washed once with 150 μl FACS buffer and then with 150 μl DPBS, resuspended in 150 μl DPBS containing DAPI (Biotium, 40043) at 1:10.000 and read on the BDCantoII or iQue (Intellicyt).

cMSLN-His-Avi = target: T1, cMSLN-His-Avi; assay: SPR, mAb2 captured on Protein G, cMSLN-His-Avi in solution
Method: (§4) The association time was 5 min and the dissociation time was 5 min. Running buffer was HBS-EP (GE Healthcare BR100188). Flow cells were regenerated by injecting Glycine-HCl pH2.1 at a flow rate of 30 μl/min for 15 seconds. The data was analysed as described in Example 7.1.

[3] = target: T3, endogenous cell surface human MSLN; assay: flow cytometry, NCI-H226 cells
Method: as §2, §3

hMSLN-His-Avi [4] = target: T2, hMSLN-His-Avi; assay: SPR, mAb2 captured on Protein G, hMSLN-His-Avi in solution
Method: as §4

[5] = target: T4, human CD137 on primary human CD8+ T cells (human, UniProt Q07011 24-255); assay: cell-based or functional assay
hMSLN-His-Avi [6] = target: T2, hMSLN-His-Avi; assay: ratio of SPR KDs
Method: as §1, §4

hMSLN-His-Avi [7] = target: T2, hMSLN-His-Avi; assay: ratio of SPR KDs; remark: listed apart in the source
hMSLN-His-Avi [8] = target: T2, hMSLN-His-Avi; assay: SPR, hMSLN-His-Avi immobilised
[9] = target: T4, human CD137 on primary human CD8+ T …; assay: cell-based or functional assay; remark: listed apart in the source
[10] = target: T4, human CD137 on primary human CD8+ T …; assay: cell-based or functional assay; remark: listed apart in the source
hMSLN-His-Avi [11] = target: T2, hMSLN-His-Avi; assay: SPR, hMSLN-His-Avi in solution

T3 sequence (Q13421 other isoform, or with tags, fused parts or gaps limits assumed): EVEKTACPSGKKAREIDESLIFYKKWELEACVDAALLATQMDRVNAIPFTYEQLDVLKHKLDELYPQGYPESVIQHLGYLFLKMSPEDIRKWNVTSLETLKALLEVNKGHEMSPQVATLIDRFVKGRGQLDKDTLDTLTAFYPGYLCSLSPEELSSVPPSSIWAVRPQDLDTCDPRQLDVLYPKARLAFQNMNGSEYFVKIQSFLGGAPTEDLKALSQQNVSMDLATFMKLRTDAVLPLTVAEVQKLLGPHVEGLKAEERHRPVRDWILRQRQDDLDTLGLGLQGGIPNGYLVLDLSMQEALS
T2 sequence (Q13421 other isoform, or with tags, fused parts or gaps): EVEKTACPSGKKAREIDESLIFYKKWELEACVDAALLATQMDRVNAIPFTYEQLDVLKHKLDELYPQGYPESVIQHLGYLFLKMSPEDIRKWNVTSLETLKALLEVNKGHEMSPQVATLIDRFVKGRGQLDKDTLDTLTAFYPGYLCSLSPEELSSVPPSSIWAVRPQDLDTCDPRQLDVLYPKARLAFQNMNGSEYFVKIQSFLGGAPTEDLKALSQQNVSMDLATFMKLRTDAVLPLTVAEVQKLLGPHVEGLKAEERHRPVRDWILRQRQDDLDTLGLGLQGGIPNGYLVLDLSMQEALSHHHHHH
T4 sequence (Q07011 24-255): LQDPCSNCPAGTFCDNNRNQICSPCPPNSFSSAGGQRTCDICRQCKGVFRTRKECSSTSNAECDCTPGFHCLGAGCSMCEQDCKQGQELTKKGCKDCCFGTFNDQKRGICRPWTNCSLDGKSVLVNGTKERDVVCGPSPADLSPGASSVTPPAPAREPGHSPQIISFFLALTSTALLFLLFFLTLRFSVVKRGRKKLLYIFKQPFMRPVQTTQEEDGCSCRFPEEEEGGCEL

Binder | Kd (hMSLN-His-Avi [1]) [nM] | EC50 [2] [nM] | Emax (MFI) [2] [MFI] | Kd (cMSLN-His-Avi) [nM] | EC50 [3] [nM] | Emax (MFI) [3] [MFI] | Kd (hMSLN-His-Avi [4]) [nM] | Emax (IL-2 pg/ml), NCI-H226 co-culture, Donor A [5] [pg/mL] | Emax (IL-2 pg/ml), NCI-H226 co-culture, Donor B [5] [pg/mL] | IL-2 release EC50, NCI-H226 co-culture, Donor A [5] [nM] | IL-2 release EC50, NCI-H226 co-culture, Donor B [5] [nM] | KD ratio in solution/immobilised human MSLN (hMSLN-His-Avi [6]) | ratio of KD in solution/immobilised (hMSLN-His-Avi [7]) | Kd (hMSLN-His-Avi [8]) [nM] | IL-2 release EC50, NCI-H226 co-culture, +2 nM sMSLN [9] [nM] | IL-2 release EC50, NCI-H226 co-culture, +20 nM sMSLN [9] [nM] | IL-2 release EC50, NCI-H226 co-culture, no sMSLN [9] [nM] | fold change of IL-2 EC50 with 20 nM sMSLN against none, NCI-H226 co-culture [10] [fold] | Kd (hMSLN-His-Avi [11]) [nM] | IL-2 release EC50, CD8+ T cell assay [10] [nM]
FS22-172-003-AA/FS28-256-024 (bispecific antibody, human IgG1, kappa, L234A L235A, V domains shown, IgG1 mAb^2 with LALA) VH: EVQLLESGGGLVQPGGSLRLSCAASGFTFTHTYMSWVRQAPGKGLEWVSNISPTYSTTNYADSVKGRFTISRDNNKNTLYLQMNSLRAEDTAVYYCARYNAYHAALDYWGQGTLVTVSS VL: EIVLTQSPGTLSLSPGERATLSCRASQSVSSSYLAWYQQKPGQAPRLLIYGASSRATGIPDRFSGSGSGTDFTLTISRLEPEDFAVYYCQQALGYPHTFGQGTKVEIKR | 4.74 | 5.24 | 675000 | 57.2 | 3.4 | 647000 | 86.6 | 2120 | 1090 | 1.29 | 0.61 | 18 |  |  |  |  |  |  |  | 
FS22-172-003-AA/FS28-256-273 (bispecific antibody, human IgG1, kappa, L234A L235A, V domains shown, IgG1 mAb^2 with LALA) VH: EVQLLESGGGLVQPGGSLRLSCAASGFTFTHTYMSWVRQAPGKGLEWVSSISPTYSTTNYADSVKGRFTISRDNNKNTLYLQMNSLRAEDTAVYYCARYNAYHAALDYWGQGTLVTVSS VL: EIVLTQSPGTLSLSPGERATLSCRASQSVSSSYLAWYQQKPGQAPRLLIYGASSRATGIPDRFSGSGSGTDFTLTISRLEPEDFAVYYCQQTVPYPYTFGQGTKVEIKR | 6 |  |  |  |  |  | 7.4 |  |  |  |  | 1.2 | 1.2 | 6 | 0.0616 | 0.366 | 0.0791 | > 4 | 7.4 | 
FS22-172-003-AA/FS28-256-027 (bispecific antibody, human IgG1, kappa, L234A L235A, V domains shown, IgG1 mAb^2 with LALA) VH: EVQLLESGGGLVQPGGSLRLSCAASGFTFTHTYMSWVRQAPGKGLEWVSNISPTYSTTNYADSVKGRFTISRDNNKNTLYLQMNSLRAEDTAVYYCARYNAYHAALDYWGQGTLVTVSS VL: EIVLTQSPGTLSLSPGERATLSCRASQSVSSSYLAWYQQKPGQAPRLLIYGASSRATGIPDRFSGSGSGTDFTLTISRLEPEDFAVYYCQQTVPYPYTFGQGTKVEIKR | 0.78 | 2.31 | 686000 | 1.06 | 0.613 | 801000 | 5.84 | 2110 |  | 0.05 |  | 7 |  |  |  |  |  | 6.6 |  | 
FS28-256-274 (in CD137 mAb^2 format) (bispecific antibody, V domains shown, Position 55 is IMGT numbering) VH: EVQLLESGGGLVQPGGSLRLSCAASGFTFTHTYMSWVRQAPGKGLEWVSTISPTYSTTNYADSVKGRFTISRDNNKNTLYLQMNSLRAEDTAVYYCARYNAYHAALDYWGQGTLVTVSS VL: EIVLTQSPGTLSLSPGERATLSCRASQSVSSSYLAWYQQKPGQAPRLLIYGASSRATGIPDRFSGSGSGTDFTLTISRLEPEDFAVYYCQQTVPYPYTFGQGTKVEIKR |  |  |  |  |  |  |  |  |  |  |  |  | 2.8 | 19.8 |  |  |  |  | 55.9 | 
FS22-172-003-AA/FS28-256-272 (bispecific antibody, human IgG1, kappa, L234A L235A, V domains shown, IgG1 mAb^2 with LALA) VH: EVQLLESGGGLVQPGGSLRLSCAASGFTFTHTYMSWVRQAPGKGLEWVSHISPTYSTTNYADSVKGRFTISRDNNKNTLYLQMNSLRAEDTAVYYCARYNAYHAALDYWGQGTLVTVSS VL: EIVLTQSPGTLSLSPGERATLSCRASQSVSSSYLAWYQQKPGQAPRLLIYGASSRATGIPDRFSGSGSGTDFTLTISRLEPEDFAVYYCQQTVPYPYTFGQGTKVEIKR | 10.7 |  |  |  |  |  | 7.6 |  |  |  |  | 0.7 | 0.7 | 10.7 | 0.13 | 0.684 | 0.122 | > 4 | 7.6 | 
FS22-172-003-AA/FS28-256-026 (bispecific antibody, human IgG1, kappa, L234A L235A, V domains shown, IgG1 mAb^2 with LALA) VH: EVQLLESGGGLVQPGGSLRLSCAASGFTFTQTYMSWVRQAPGKGLEWVSNISPTYSTTNYADSVKGRFTISRDNSKNTLYLQMNSLRAEDTAVYYCARYNAYQIGLDYWGQGTLVTVSS VL: EIVLTQSPGTLSLSPGERATLSCRASQSVSSSYLAWYQQKPGQAPRLLIYGASSRATGIPDRFSGSGSGTDFTLTISRLEPEDFAVYYCQQALGYPHTFGQGTKVEIKR | 3.19 | 2.68 | 688000 | 33.1 | 1.47 | 634000 | 57.9 | 2060 | 932 | 0.67 | 0.23 | 18 |  |  |  |  |  |  |  | 
20H4.9 (antibody, V domains shown) VH: QVQLQQWGAGLLKPSETLSLTCAVYGGSFSGYYWSWIRQSPEKGLEWIGEINHGGYVTYNPSLESRVTISVDTSKNQFSLKLSSVTAADTAVYYCARDYGPGNYDWYFDLWGRGTLVTVSS VL: EIVLTQSPATLSLSPGERATLSCRASQSVSSYLAWYQQKPGQAPRLLIYDASNRATGIPARFSGSGSGTDFTLTISSLEPEDFAVYYCQQRSNWPPALTFGGGTKVEIKR |  |  |  |  |  |  |  |  |  |  |  |  |  |  |  |  |  |  |  | 0.5

Source: patent US12319739 (F STAR DELTA, dated 2025)
